B1: mouse anti-canine PD-L1 monoclonal antibody 5F12 (antibody, V domains shown)
VH: QVQLQQSGPELVKPGASVKISCKASGYTFTDYYMNWVKQRPGQGLEWIGWIFPGSGATYYNERFMGKATLTVDKSSNTAYMLFSSLTSEDSAVYFCLRSDWDVGDFWGQGTTLTVSS
VL: DIVMTQAAFSNPVTLGTSASISCRSSRSLLHTNGITYLSWFLQKPGQSPQLLIYQMSNLASGVPDRFSSSGSGTDFTLRISRVEAEDVGIYYCAQTLGLPRTFGGGTKLEIK
notes: also called mAb 5F12; Anti-PDL-1 5F12
B2: mouse anti-canine PD-L1 monoclonal antibody 4F9 (antibody, V domains shown)
VH: EVQLVESGGGLVKPGGSLKLSCAASGFTFSSYAMSWVRQTPDKRLEWVATISDGGSYTHYPDNLMGRFTISRDNAKNNLYLQMSHLKSDDTAMYYCARESYDGYYVANWGQGTLVTVSA
VL: DIVLTQSPATLSVNPGDSVSLSCRASQSISNNLHWYQQKSHESPRLLIKYASQSISGIPSRFSGSGSGTDFTLSINSVETEDFGMYFCQQSNSWPQTFGGGTKLEIK
notes: also called mAb 4F9

Tests used:
[1] = biological target: T1, canine PD-L1 extracellular domain-human IgG1 Fc fusion protein (canine); test: ELISA, plate coated with canine PD-L1-hFc, two-fold dilutions of mAb, detection with HRP goat anti-mouse IgG, OD 650/490
T1 construct: Expressed in HEK 293 cells and purified on Protein A; also called canine PD-L1-hFc fusion protein; cPD-L1-hFc
T1 sequence (chain, as listed by the source limits assumed): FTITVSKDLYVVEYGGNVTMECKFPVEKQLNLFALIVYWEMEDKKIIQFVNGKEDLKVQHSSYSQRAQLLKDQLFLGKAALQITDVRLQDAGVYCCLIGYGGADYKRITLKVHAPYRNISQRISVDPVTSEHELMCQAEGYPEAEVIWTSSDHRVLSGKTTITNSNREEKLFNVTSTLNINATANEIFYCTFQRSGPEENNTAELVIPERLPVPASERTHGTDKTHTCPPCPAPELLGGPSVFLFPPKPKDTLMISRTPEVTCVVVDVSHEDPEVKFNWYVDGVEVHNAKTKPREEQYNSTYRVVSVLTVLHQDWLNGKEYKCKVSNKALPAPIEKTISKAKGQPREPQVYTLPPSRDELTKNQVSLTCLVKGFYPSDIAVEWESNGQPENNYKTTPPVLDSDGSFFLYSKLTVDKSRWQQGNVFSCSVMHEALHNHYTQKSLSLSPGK
Method: Hybridoma cells in the cell chamber were expanded to approximately 2.5×10⁷ cells/mL over 3-7 days. Then, 10 mL of cell suspension was harvested from the cell chamber and replaced with fresh media to allow for re-expansion of cells and subsequent harvests. This procedure was repeated as necessary to obtain adequate amounts of mAb from each hybridoma clone. Harvested cell suspensions were centrifuged and the supernatants were filtered through 0.2 micron filter membranes. For antibody purification, each clone's supernatant was purified using a Protein G Sepharose 4 Fast flow 5 mL column (GE Healthcare) by gravity flow. After washing with Tris-EDTA (TE) buffer pH 8.0, bound antibodies were eluted using 0.1 M glycine buffer, pH 2.7, followed by pH neutralization using 1 M Tris, pH 8.0. Antibodies were concentrated and buffer exchanged into phosphate-buffered saline (PBS) using Centriprep YM-10.10 kDa NMWL centrifugal filter units (Millipore). Antibody concentrations were quantified using spectrophotometry. […] The color reaction is allowed to develop for 5-20 minutes at 37° C. prior to measuring absorbance at 650 nm.

[2] = biological target: T1, canine PD-L1 extracellular domain-human …; test: cell-based ELISA (CELISA): mAb pre-incubated with cPD-L1-hFc, then added to CHO cells expressing canine PD-1; bound cPD-L1-hFc detected with anti-human Fc-HRP, OD 450-620 nm; blocked partner: canine PD-1
Method: Ligand blockade was confirmed using this assay in conjunction with canine PD-L1/h Fec protein as follows: [0233] 1. Seed cPD-1 CHO cells in 96-well plates and grow the cells to 95-100% confluent. [0234] General guidelines for plating CHO cells, [0235] on day −3: […] (1×10⁵c/mL) [0236] −2: 2×10⁴ c/well ([…]) [0237] −1: 4×10⁴ c/well (4×10⁵ c/mL) [0238] 2. 3-fold dilute anti-cPDL1 mAbs in CHO media, starting at 30 μg/mL, 100 μL/well. Add cPD-L1-hFc to 4 μg/ml in CHO media, 100 μL/well, co-incubate in a dilution plate at 37° C., 5% CO₂ with shaking for 60 min. [0239] 3. Aspirate cell culture media from the cell coated plates, wash the plates 3×PBS+0.05% Tween20 and 1×CHO media. [0240] 4. Add the co-incubated cPD-L1 mAbs/PD-L1 Fc from the dilution plate to the cell coated plate. 100 uL/well. Incubate at 37° C., 5% CO₂ with shaking for 60 min. [0241] 5. Wash the plates 6×PBS+0.05% Tween 20 (using manual wash protocol). [0242] 6. Add Anti-Human Fc-HRP (Calbiochem) (1:2500) in CHO media, 100 ul/well, incubate 30-60 min at 37° C./5% CO₂. [0243] 7. Wash the plates 5×PBS+0.05% Tween20 (using manual wash protocol). [0244] 8. Add 100 μl/well TMB mircowell substrate. Incubate at room temp for 10 minutes. Use one step substrate from Pierce. [0245] 9. Stop with 100 μl/well 1.5M Phosphoric acid. [0246] 10. Measure A450-A620 on the ELISA reader.

| Binder | binding result [1] | IC50 (read off the curve) [2] [nM] |
| --- | --- | --- |
| B1 | binds | – |
| B2 | – | ~20 |

From US20200109212A1 (INTERVET, published 2020)
